Where a chain is given by its changes, count along the chain named.
B1: heavy chain-only anti-BCMA antibody (UniAb) with the heavy chain variable region of SEQ ID NO: 12 (antibody, V domains shown)
VH: QVQLVESGGGLVQPGGSLRLSCAASGFTFTNHAMSWVRQAPGKGLELVSSISGNGRTTYYADSVKGRFTISRDISKNTLDLQMNSLRAEDTAVYYCAKDGGETLVDSRGQGTLVTVSS
notes: Heavy chain-only antibody expressed in HEK cells (CH1 deleted, no light chain), tested as supernatant; also called anti-BCMA UniAb; HCAb
B2: heavy chain-only anti-BCMA antibody (UniAb) with the heavy chain variable region of SEQ ID NO: 15 (antibody, V domains shown)
VH: EVQLLESGGGLVQPGGSLRLSCAASGFTFSSYAMSWVRQAPGKGLEWVSSISGSGDYIYYADSVKGRFTISRDISKNTLYLQMNSLRAEDTAVYYCAKEGTGANSSLADYRGQGTLVTVSS
notes: as for B1
B3: heavy chain-only anti-BCMA antibody (UniAb) with the heavy chain variable region of SEQ ID NO: 13 (antibody, V domains shown)
VH: QVQLVESGGGLVQPGGSLRLSCAASGFTFSSHAMTWVRQAPGKGLEWVAAISGSGDFTHYADSVKGRFTISRDNSKNTVSLQMNNLRAEDTAVYYCAKDEDGGSLLGYRGQGTLVTVSS
notes: as for B1
B4: heavy chain-only anti-BCMA antibody (UniAb) with the heavy chain variable region of SEQ ID NO: 14 (antibody, V domains shown)
VH: B3 VH with Q1E, V5L, V12I, A49S, F57Y, S80Y, N85S, T91S, Y108H
notes: as for B1

Each binder was assayed against T1, human BCMA on NCI-H929 cells (human, UniProt Q02223 1-184) (assay: flow cytometry on H929 cells).
T1 construct: whole, on cells; also called H929 human cells that express BCMA; BCMA-expressing cell line (H929)
T1 sequence (looked up): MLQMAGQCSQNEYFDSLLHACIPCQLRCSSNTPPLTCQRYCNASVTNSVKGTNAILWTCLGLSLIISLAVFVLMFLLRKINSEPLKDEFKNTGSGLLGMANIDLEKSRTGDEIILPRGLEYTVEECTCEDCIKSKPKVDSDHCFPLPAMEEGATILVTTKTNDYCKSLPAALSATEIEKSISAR
Experimental: Supernatants of the 4 test anti-BCMA antibodies were also tested by flow cytometry for binding to H929 cells. The samples were measured by flow cytometry using a Guava easyCyte 8HT instrument from EMD Millipore and analyzed using guavaSoft. Bound antibodies were detected with goat anti-human IgG F(ab)2 conjugated to PE (Southern Biotech 2042-09). All antibodies were diluted in PBS with 1% BSA. Positive staining was determined by comparison to staining with a human IgG1 isotype control.
B1: binds.
B2: binds.
B3: binds.
B4: binds.

What follows are binders tested against T2, human BCMA ECD protein (Abcam ab50089) (human, UniProt Q02223 1-54) (assay: ELISA on human BCMA ECD; Octet off-rate).
T2 construct: extracellular domain; Bought protein; also called human BCMA protein; recombinant BCMA protein
T2 sequence (looked up): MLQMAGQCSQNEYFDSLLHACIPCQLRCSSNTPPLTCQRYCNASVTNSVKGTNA
Experimental: Supernatants of 4 antibodies were tested for binding in a standard ELISA assay to human and cynomolgus BCMA. Binding to recombinant BCMA protein was determined by ELISA using human BCMA ECD obtained from Abcam (ab50089). The BCMA ECD protein was used at a concentration of […] to capture UniAbs at 50 ng/mL. Binding of UniAbs was detected with a goat anti-human IgG HRP conjugated antibody (ThermoFisher 31413). All antibodies were diluted in 1×TBS with 0.05% Tween-20 and 1% dry milk powder.
B1: binds.
B2: binds.
B3: binds.
B4: binds.

— patent US20210147564A1 (TENEOBIO, published 2021)
